Experimental data from the Immune Epitope Database (IEDB).

Legend:
Experiment in all cases: IEDB peptide-MHC binding, purified MHC/competitive/radioactivity; filed as Kd, often an IC50 or EC50 that approximates it; ≥ and ≤ were set here for values at or beyond the usual limits of such assays
HLA-A*31:01 = target: HLA-A*31:01
HLA-A*03:01 = target: HLA-A*03:01
HLA-A*11:01 = target: HLA-A*11:01
HLA-A*33:01 = target: HLA-A*33:01
HLA-A*68:01 = target: HLA-A*68:01
HLA-A*02:03 = target: HLA-A*02:03
HLA-A*02:06 = target: HLA-A*02:06
[1] = source organism: Vaccinia virus WR
[2] = source organism: Human immunodeficiency virus type 1 BH10
[3] = source organism: Mammarenavirus whitewaterense
[4] = source organism: SARS coronavirus Tor2
[5] = source organism: Mammarenavirus juninense

| Sequence | Kd (HLA-A*31:01; [1]) | Kd (HLA-A*03:01; [1]) | Kd (HLA-A*11:01; [1]) | Kd (HLA-A*33:01; [1]) | Kd (HLA-A*68:01; [1]) | also measured |
| --- | --- | --- | --- | --- | --- | --- |
| SIMETIDPVY | 9760 nM | 222 nM | 4.36 nM | ≥ 36600 nM | 29 nM |  |
| SINSEYIESK | ≥ 70000 nM | 7720 nM | 55.4 nM | ≥ 70000 nM | 2580 nM |  |
| SLGKAVHQV |  |  |  |  |  | Kd (HLA-A*02:03; source organism: Dengue virus 4 Philippines/H241/1956): 14.6 nM |
| SLLNATDIAV |  |  |  |  |  | Kd (HLA-A*02:03; [2]): 530 nM; Kd (HLA-A*02:06; [2]): 16.6 nM |
| SLVKKNKKR | ≥ 77900 nM | ≥ 78000 nM | ≥ 77900 nM | ≥ 77700 nM | ≥ 77700 nM |  |
| SMDVLAEKK | ≥ 22600 nM | 911 nM | 25.7 nM | ≥ 77700 nM | 1270 nM |  |
| SRIFEELVWK |  |  |  |  |  | Kd (HLA-A*31:01; [3]): 3640 nM; Kd (HLA-A*03:01; [3]): 200 nM; Kd (HLA-A*11:01; [3]): 259 nM; Kd (HLA-A*33:01; [3]): ≥ 52000 nM; Kd (HLA-A*68:01; [3]): 477 nM |
| SSKGLACYR | 37.6 nM | 12800 nM | 80.4 nM | 25.6 nM | 5.33 nM |  |
| SVKTQFNYFK |  |  |  |  |  | Kd (HLA-A*31:01; [4]): 24.1 nM; Kd (HLA-A*03:01; [4]): 144 nM; Kd (HLA-A*11:01; [4]): 21.1 nM; Kd (HLA-A*33:01; [4]): 808 nM; Kd (HLA-A*68:01; [4]): 80 nM |
| SVPLPCQLMY | ≥ 23200 nM | 413 nM | 38 nM | ≥ 53100 nM | 14400 nM |  |
| TAIAKCNLDH |  |  |  |  |  | Kd (HLA-A*31:01; [3]): 929 nM; Kd (HLA-A*03:01; [3]): ≥ 70000 nM; Kd (HLA-A*11:01; [3]): ≥ 69700 nM; Kd (HLA-A*33:01; [3]): ≥ 34200 nM; Kd (HLA-A*68:01; [3]): 7070 nM |
| TFIDVHIPK | 2.36 nM | 187 nM | 0.921 nM | 1.05 nM | 11.4 nM |  |
| TIEILRNYLR | 21.1 nM | 2350 nM | 48.5 nM | 27.7 nM | 1.62 nM |  |
| TIKYSNDNR | 19.6 nM | 15500 nM | 228 nM | 116 nM | 3 nM |  |
| TILEYLYIMR | 987 nM | 8990 nM | 2060 nM | 2300 nM | 167 nM |  |
| TIQRFSSLR | 0.55 nM | 5210 nM | 8.93 nM | 5.54 nM | 4.86 nM |  |
| TISSESLVY | 10200 nM | 21 nM | 10.7 nM | 5450 nM | 619 nM |  |

| Sequence | Kd (HLA-A*31:01; [1]) | Kd (HLA-A*03:01; [1]) | Kd (HLA-A*11:01; [1]) | Kd (HLA-A*33:01; [1]) | Kd (HLA-A*68:01; [1]) | also measured |
| --- | --- | --- | --- | --- | --- | --- |
| TLNGIMMNER | 108 nM | 226 nM | 1330 nM | 1460 nM | 743 nM |  |
| TQSVLCVKK | 1010 nM | 1040 nM | 6.64 nM | ≥ 67900 nM | 228 nM |  |
| TSRTLSYYK |  |  |  |  |  | Kd (HLA-A*31:01; [4]): 179 nM; Kd (HLA-A*03:01; [4]): 450 nM; Kd (HLA-A*11:01; [4]): 160 nM; Kd (HLA-A*33:01; [4]): 2400 nM; Kd (HLA-A*68:01; [4]): 840 nM |
| TVKPGNFNK |  |  |  |  |  | Kd (HLA-A*31:01; [4]): 41.6 nM; Kd (HLA-A*03:01; [4]): 81.5 nM; Kd (HLA-A*11:01; [4]): 33 nM; Kd (HLA-A*33:01; [4]): 1000 nM; Kd (HLA-A*68:01; [4]): 122 nM |
| VCFHEFLSSK |  |  |  |  |  | Kd (HLA-A*31:01; [5]): 1530 nM; Kd (HLA-A*03:01; [5]): 3470 nM; Kd (HLA-A*11:01; [5]): 4500 nM; Kd (HLA-A*33:01; [5]): ≥ 70000 nM; Kd (HLA-A*68:01; [5]): 14400 nM |
| VFCNDHKGNR | 428 nM | ≥ 53200 nM | ≥ 69800 nM | 1880 nM | 4090 nM |  |
| VLPHLCLDY | 7820 nM | 102 nM | 421 nM | 1990 nM | 15000 nM |  |
| VQADSGCVV |  |  |  |  |  | Kd (HLA-A*02:06; source organism: Dengue virus 2 Jamaica/1409/1983): 79.6 nM |
| VSAKQLRTR | 286 nM | 12700 nM | 2730 nM | 13400 nM | 1050 nM |  |
| VTGFMEEEIK | 10700 nM | 13300 nM | 7.06 nM | ≥ 33900 nM | 1220 nM |  |
| VVNARLRAK |  |  |  |  |  | Kd (HLA-A*31:01; [4]): 199 nM; Kd (HLA-A*03:01; [4]): 13.8 nM; Kd (HLA-A*11:01; [4]): 130 nM; Kd (HLA-A*33:01; [4]): ≥ 24900 nM; Kd (HLA-A*68:01; [4]): 8180 nM |
| WLHECTDESR | 6230 nM | ≥ 70100 nM | ≥ 69800 nM | 254 nM | 273 nM |  |
| WSRIGTAATK | ≥ 28900 nM | 101 nM | 1070 nM | ≥ 70000 nM | 786 nM |  |
| YISRDELWAR | 1.75 nM | ≥ 25600 nM | 792 nM | 0.808 nM | 32.4 nM |  |
| YIYKSGKLVK | 7800 nM | 7.74 nM | 36 nM | 7860 nM | 539 nM |  |
| YMSALNHTK |  |  |  |  |  | Kd (HLA-A*31:01; [4]): 642 nM; Kd (HLA-A*03:01; [4]): 108 nM; Kd (HLA-A*11:01; [4]): 48.4 nM; Kd (HLA-A*33:01; [4]): 1120 nM; Kd (HLA-A*68:01; [4]): 3.43 nM |
